Source: the PETadex activity labels (doi:10.1007/s12010-013-0219-x)

Legend:
[1] = substrate: pNPB; test: Proxy for plastic degradation [Relative activity]
[2] = substrate: pNPB; test: Proxy for plastic degradation [kcat/Km (catalytic efficiency)] (µM⁻¹s⁻¹); settings: pH 8
[3] = substrate: pNPB; test: Proxy for plastic degradation [p-nitrophenol (pNP) release] (% relative activity); settings: pH 8

Row | Protein | Proxy for plastic degradation ([1]; pH 5) [%] | Proxy for plastic degradation ([1]; pH 6) [%] | Proxy for plastic degradation ([1]; pH 6.8) [%] | Proxy for plastic degradation ([1]; pH 7.5) [%] | Proxy for plastic degradation ([1]; pH 9) [%] | Proxy for plastic degradation [2] | Proxy for plastic degradation ([3]; 25 °C) | Proxy for plastic degradation ([3]; 30 °C) | Proxy for plastic degradation ([3]; 37 °C) | Proxy for plastic degradation ([3]; 40 °C) | Proxy for plastic degradation ([3]; 45 °C) | Proxy for plastic degradation ([3]; 50 °C) | Proxy for plastic degradation ([3]; 55 °C) | Proxy for plastic degradation ([3]; 60 °C) | Proxy for plastic degradation ([3]; 70 °C) | Proxy for plastic degradation ([3]; 80 °C) | Proxy for plastic degradation ([3]; 15 h) | Proxy for plastic degradation ([3]; 30 h) | Proxy for plastic degradation ([3]; 40 h) | further results
1 | unnamed (protein) MPPHAARPGPAQNRRGRAMAVITPRRERSSLLSRALRFTAAAATALVTAVSLAAPAHAANPYERGPNPTDALLEARSGPFSVSEERASRFGADGFGGGTIYYPRENNTYGAVAISPGYTGTQASVAWLGERIASHGFVVITIDTNTTLDQPDSRARQLNAALDYMINDASSAVRSRIDSSRLAVMGHSMGGGGTLRLASQRPDLKAAIPLTPWHLNKNWSSVRVPTLIIGADLDTIAPVLTHARPFYNSLPTSISKAYLELDGATHFAPNIPNKIIGKYSVAWLKRFVDNDTRYTQFLCPGPRDGLFGEVEEYRSTCPF | 35 | 60 | 75 | 90 | 75 | 1.35 | 31 | 37.5 | 45 | 70.5 | 75 | 95.5 | 100 | 93.5 | 74 | 67.5 | 98 | 50 | 40 | Proxy for plastic degradation ([3]; 0 h): 100
2 | unnamed (protein) MAVMTPRRERSSLLSRALQVTAAAATALVTAVSLAAPAHAANPYERGPNPTDALLEASSGPFSVSEENVSRLSASGFGGGTIYYPRENNTYGAVAISPGYTGTEASIAWLGERIASHGFVVITIDTITTLDQPDSRAEQLNAALNHMINRASSTVRSRIDSSRLAVMGHSMGGGGTLRLASQRPDLKAAIPLTPWHLNKNWSSVTVPTLIIGADLDTIAPVATHAKPFYNSLPSSISKAYLELDGATHFAPNIPNKIIGKYSVAWLKRFVDNDTRYTQFLCPGPRDGLFGEVEEYRSTCPF | 30 | 59 | 75 | 92 | 75 | 2.84 | 29 | 35.5 | 51 | 68.5 | 80.5 | 93.5 | 100 | 91.5 | 79 | 67 | 93 | 47 | 38 | Proxy for plastic degradation ([1]; pH 8): 100%; Proxy for plastic degradation ([1]; pH 8, 25 °C): 29%; Proxy for plastic degradation ([1]; pH 8, 30 °C): 35%; Proxy for plastic degradation ([1]; pH 8, 37 °C): 50%; Proxy for plastic degradation ([1]; pH 8, 40 °C): 69%; Proxy for plastic degradation ([1]; pH 8, 45 °C): 80%; Proxy for plastic degradation ([1]; pH 8, 50 °C): 93%; Proxy for plastic degradation ([1]; pH 8, 55 °C): 100%; Proxy for plastic degradation ([1]; pH 8, 60 °C): 92%; Proxy for plastic degradation ([1]; pH 8, 70 °C): 78%; Proxy for plastic degradation ([1]; pH 8, 80 °C): 65%
